According to the supplement of paper PMC10567573:

B1: VENTX (parent)
chain: VFQHHQYLSPLERKRLAREMQLSE

Variants of: B1
Assay: protein stability index of a GFP-peptide fusion (GPS, HEK-293T) (PSI 1-6); higher = more stable
Conditions: c terminus: a fixed tail appended
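Note: lentivirally expressed fusions sorted by FACS into six bins by GFP to DsRed ratio, PSI derived from sequencing read proportions per bin multiplied by bin number.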

Protein stability index: each site, then its substitutions
M20: I 2.39, L 2.75, Q 2.6, K 2.54, P 2.78, T 2.36, V 2.29, S 2.62, A 2.8, N 2.53, C 3.43, H 2.57, G 2.71, W 1.67, R 3.25, Y 2.96, D 3.1, E 3.28, F 2.04
E19: T 2.16, W 1.91, M 1.78, D 2.67, H 2.17, P 2.44, F 1.76, A 2.08, I 1.86, V 1.91, L 1.81, N 3.28, K 1.94, Y 1.91, R 2.38, S 2.42, G 2.06, Q 3.09, C 1.91
L22: M 2.42, I 1.93, V 2.27, T 3.12, E 2.85, Q 2.38, A 2.72, Y 2.17, F 1.83, W 1.96, R 2.44, C 2.84, N 3.04, K 3.62, D 3.29, G 1.89, P 2.68, H 2.93, S 2.56
L16: E 3.1, M 2.48, N 2.92, T 2.71, R 2.33, S 2.8, Y 2.31, V 2.75, P 2.78, K 2.52, C 2.62, H 2.82, G 2.9, D 3.03, A 2, W 2.01, F 2.28, Q 2.7, I 2.71
Q21: V 2.44, N 2.29, K 2.66, R 2.99, T 2.49, G 2.51, F 1.98, M 2.06, A 2.49, H 2.68, E 2.54, Y 3.06, I 2.32, C 2.5, P 2.64, W 2.43, L 2.59, S 2.77, D 3.61
S23: M 2.4, H 2.37, C 2.41, T 2.44, L 2.84, Y 2.42, K 2.22, W 2.04, G 2.5, A 3.5, Q 3.04, N 2.25, P 2.78, D 2.66, R 2.33, I 1.97, V 2.18, E 3.23, F 2.98
A17: W 2.24, Y 3.02, L 2.79, P 2.98, D 2.45, N 2.38, C 1.84, E 2.93, R 2.98, F 2.5, Q 2.59, H 2.24, I 2.36, G 2.69, S 3.1, M 2.32, K 2.75, T 2.97, V 2.14
E24: V 1.39, R 1.95, D 2.48, Q 2.5, K 2.29, A 2.14, N 2.37, P 2.1, T 2.27, F 1.93, I 2.23, C 1.82, S 2.65, W 2.76, M 2.39, Y 2.07, G 2.3, L 2.07, H 2.47
R15: P 2.36, T 2.97, H 2.54, K 2.44, M 2.02, V 1.92, F 1.72, E 2.41, I 2.09, C 1.99, A 1.79, Q 2.57, L 2.02, N 2.85, W 2.21
